Among the targets are GIP receptor (UniProt P48546); GLP-1 receptor (UniProt P43220); glucagon receptor (UniProt P47871).
Common to all, as to experiment: cell-based or functional assay

Sequence of glucagon receptor (P47871 26-477 limits assumed): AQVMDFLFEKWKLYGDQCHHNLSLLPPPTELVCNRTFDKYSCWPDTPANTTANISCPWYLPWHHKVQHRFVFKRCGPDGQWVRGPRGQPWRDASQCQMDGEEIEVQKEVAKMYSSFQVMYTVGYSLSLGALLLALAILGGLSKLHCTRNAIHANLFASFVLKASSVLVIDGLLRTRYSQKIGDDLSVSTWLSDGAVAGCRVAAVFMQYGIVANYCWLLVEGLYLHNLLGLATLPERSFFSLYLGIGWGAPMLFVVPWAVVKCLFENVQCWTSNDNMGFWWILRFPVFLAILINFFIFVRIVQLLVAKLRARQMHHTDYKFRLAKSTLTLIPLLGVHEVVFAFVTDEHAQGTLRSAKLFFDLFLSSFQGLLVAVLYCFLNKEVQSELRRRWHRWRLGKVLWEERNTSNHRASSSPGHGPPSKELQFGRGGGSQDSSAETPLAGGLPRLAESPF
Sequence of GLP-1 receptor (P43220 24-463 limits assumed): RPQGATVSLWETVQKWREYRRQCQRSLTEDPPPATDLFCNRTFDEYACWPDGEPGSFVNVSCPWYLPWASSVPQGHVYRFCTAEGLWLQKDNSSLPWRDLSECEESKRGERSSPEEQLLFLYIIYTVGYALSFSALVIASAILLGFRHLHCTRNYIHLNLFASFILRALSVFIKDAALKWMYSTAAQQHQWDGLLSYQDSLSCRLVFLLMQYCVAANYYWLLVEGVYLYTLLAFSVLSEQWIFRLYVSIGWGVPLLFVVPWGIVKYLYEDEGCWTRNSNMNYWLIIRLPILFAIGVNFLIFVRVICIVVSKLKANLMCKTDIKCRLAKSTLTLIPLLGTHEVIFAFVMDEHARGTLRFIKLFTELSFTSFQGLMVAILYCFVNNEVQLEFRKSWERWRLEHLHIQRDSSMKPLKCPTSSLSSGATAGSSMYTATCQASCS
Sequence of GIP receptor (P48546 22-466): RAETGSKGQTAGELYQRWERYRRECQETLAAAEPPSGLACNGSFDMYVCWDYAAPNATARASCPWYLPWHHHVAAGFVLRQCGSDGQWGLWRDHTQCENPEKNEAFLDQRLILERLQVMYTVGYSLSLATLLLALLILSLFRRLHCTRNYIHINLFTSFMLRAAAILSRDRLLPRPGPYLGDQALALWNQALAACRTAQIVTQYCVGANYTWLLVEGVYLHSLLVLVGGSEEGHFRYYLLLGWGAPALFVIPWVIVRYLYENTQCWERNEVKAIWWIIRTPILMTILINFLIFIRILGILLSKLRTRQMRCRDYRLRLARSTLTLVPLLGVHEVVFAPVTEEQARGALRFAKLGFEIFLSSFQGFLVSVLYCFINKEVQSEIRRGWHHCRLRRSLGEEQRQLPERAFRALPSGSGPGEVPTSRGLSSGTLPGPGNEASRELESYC

As a reminder, the EC50 is the concentration giving half of the maximal effect. Regarding mt-103 (peptide), the EC50 in the assay with GIP receptor was 0.242 nM; with GLP-1 receptor, 26.9 nM; with glucagon receptor, more than 4000 nM.
For Liraglutide (peptide), the % activity at the glucagon receptor with glucagon receptor amounted to 0.04%.

The record behind these values is patent publication US20110166062A1.
